These results are taken from publication doi:10.1101/2023.10.05.561050 (bioRxiv, 2023).

Experiment in all cases: PIE-FCCS
Data set [1] has as its target Myr-GCN4-FP (dimer control).
Data set [2] concerns the target Myr-GCN4-EGFRk-FP (multimer control).
The data set “PIE-FCCS” concerns the molecule itself.

Myr-GCN4-FP (dimer control): in data set [1], the fc (median cross-correlation value) was found to be 0.14.

Turning to Myr-GCN4-EGFRk-FP (multimer control), the fc (median cross-correlation value) in data set [2] was 0.23.

B1: Myr-ICD-ΔS (EphA2 intracellular domain without the SAM domain, AA 559-882, with a membrane localization sequence) (domain or fragment)
chain: HRRRKNQRARQSPEDVYFSKSEQLKPLKTYVDPHTYEDPNQAVLKFTTEIHPSCVTRQKVIGAGEFGEVYKGMLKTSSGKKEVPVAIKTLKAGYTEKQRVDFLGEAGIMGQFSHHNIIRLEGVISKYKPMMIITEYMENGALDKFLREKDGEFSVLQLVGMLRGIAAGMKYLANMNYVHRDLAARNILVNSNLVCKVSDFGLSRVLEDDPEATYTTSGGKIPIRWTAPEAISYRKFTSASDVWSFGIVMWEVMTYGERPYWELSNHEVMKAINDGFRLPTPMDCPSAIYQLMMQCWQQERARRPKFADIVSILDKLIRAPDSLK
modifications: N-terminal myristoylation of the c-Src-derived peptide
By stoichiometry N is commonly meant the number of molecules, sites or subunits per partner or assembly. With B1, in the data set “PIE-FCCS”, the “stoichiometry N” value came to 2.
